Publication PMC8476856

Molecular target: recombinant human α1A/βIII tubulin (human) (UniProt Q71U36)
Assay: in vitro microtubule dynamics assay

critical concentration: 0.94 µM
koff: 3.2 s⁻¹
kon: 3.48e+06 M⁻¹ s⁻¹
Substance: recombinant human α1A/βIII tubulin (from UniProt Q71U36 1-451; Q13509 1-450) (complex)
